Measurements: PMC6016244, “Escherichia coli ZipA Organizes FtsZ Polymers into Dynamic Ring-Like Protofilament Structures” (mBio, 2018)
Each block holds one binder with its values, some of them ahead of it.

Tests used:
[1] = target: T1, Alexa Fluor 488-labeled FtsZ (E. coli, UniProt P0A9A6 1-383, Alexa Fluor 488 (succinimidyl ester probe, 1:10 molar ratio); labelled residues not stated); assay: self-organization assay on supported lipid bilayers, confocal and STED fluorescence microscopy; Alexa Fluor 647-labeled sZipA attached to supported bilayers of E. coli polar lipids with 0.5% NTA lipids (low density); 1 µM FtsZ-Alexa Fluor 488 added, then 2 mM GTP or 0.5 mM GMPcPP; Z-buffer; conditions: both partners purified
T1 construct: Cell division protein FtsZ, Escherichia coli; wild type; Same protein as m1, with a fluorescent label; used on supported lipid bilayers; also called FtsZ-Alexa Fluor 488; FtsZ Alexa Fluor 488
T1 sequence (looked up): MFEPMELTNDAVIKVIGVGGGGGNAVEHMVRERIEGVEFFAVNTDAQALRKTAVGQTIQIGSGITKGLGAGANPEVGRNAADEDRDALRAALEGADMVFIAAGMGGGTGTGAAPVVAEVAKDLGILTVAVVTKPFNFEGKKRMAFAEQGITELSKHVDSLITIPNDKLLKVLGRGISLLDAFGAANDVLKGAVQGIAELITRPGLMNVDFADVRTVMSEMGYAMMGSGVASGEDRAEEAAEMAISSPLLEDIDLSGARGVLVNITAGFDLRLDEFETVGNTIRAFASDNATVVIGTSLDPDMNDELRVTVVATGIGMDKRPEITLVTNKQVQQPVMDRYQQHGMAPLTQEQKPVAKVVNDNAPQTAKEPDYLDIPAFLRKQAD

[2] = target: the molecule itself; assay: lipid monolayer assay with negative stain electron microscopy; sZipA (1-2 µM) held by its His6 tag on E. coli polar lipid (or DOPC) monolayers with 0.5 to 10% DGS-NTA; FtsZ 0.5 to 5 µM added, then 2 mM GTP or 0.5 mM GMPcPP; Z-buffer (50 mM Tris-HCl pH 7.5, 300 mM KCl, 5 mM MgCl2); control: FtsZ on NTA monolayers without sZipA

- binding result [1]: binds
B1: Alexa Fluor 647-labeled sZipA (domain or fragment)
chain: not shown
modifications: Alexa Fluor 647 (succinimidyl ester probe, 1:10 molar ratio); labelled residues not stated
notes: Cell division protein ZipA, Escherichia coli; first 25 amino acids replaced by a His6 tag; Same construct as m2, with a fluorescent label; attached to supported lipid bilayers that contain NTA lipids; also called fluorescent sZipA; not shown: His6, N-terminal, kept

B2: E. coli FtsZ (natural protein, UniProt P0A9A6 1-383, looked up)
chain: T1 sequence (looked up)
notes: Cell division protein FtsZ, Escherichia coli; wild type; Unlabelled FtsZ of the lipid monolayer / electron microscopy assays; Polymerised with GTP or GMPcPP; source: plasmid pMFV56 (pET28a-FtsZ)
- binding result [2]: binds
